Laboratory results taken from patent publication US20230192896A1.
pKd: −log10 of the molar value.

Columns and labels:
Assay in all cases: not given (FIG. 24A)
[1] = molecular target: free FIXa (activated Factor IX) (human) (UniProt P00740)
[2] = molecular target: activated Factor X (FXa) (Homo sapiens (Human)) (UniProt P00742)
FX zymogen = FX zymogen (UniProt P00742)
[3] = molecular target: FIX zymogen (non-activatable FIX) (UniProt P00740)

FX zymogen, sequence (P00742 41-179, chain 1 of 2): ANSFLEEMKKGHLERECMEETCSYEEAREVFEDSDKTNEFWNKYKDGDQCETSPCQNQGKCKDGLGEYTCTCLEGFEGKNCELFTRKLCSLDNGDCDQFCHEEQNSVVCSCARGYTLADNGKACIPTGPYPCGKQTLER
FX zymogen, sequence (P00742 183-488, chain 2 of 2): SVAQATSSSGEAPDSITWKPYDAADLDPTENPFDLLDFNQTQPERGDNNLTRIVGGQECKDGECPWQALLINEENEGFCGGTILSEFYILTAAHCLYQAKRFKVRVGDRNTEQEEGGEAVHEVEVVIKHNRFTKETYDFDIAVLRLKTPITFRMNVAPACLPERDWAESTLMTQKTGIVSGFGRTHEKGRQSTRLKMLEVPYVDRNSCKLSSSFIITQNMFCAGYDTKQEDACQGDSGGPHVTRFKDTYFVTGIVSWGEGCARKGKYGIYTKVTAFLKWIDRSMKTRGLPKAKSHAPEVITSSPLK
activated Factor X (FXa) (Homo sapiens (Human)), sequence (P00742 41-179, chain 1 of 2): as the sequence (P00742 41-179, chain 1 of 2) above
activated Factor X (FXa) (Homo sapiens (Human)), sequence (P00742 235-488, chain 2 of 2): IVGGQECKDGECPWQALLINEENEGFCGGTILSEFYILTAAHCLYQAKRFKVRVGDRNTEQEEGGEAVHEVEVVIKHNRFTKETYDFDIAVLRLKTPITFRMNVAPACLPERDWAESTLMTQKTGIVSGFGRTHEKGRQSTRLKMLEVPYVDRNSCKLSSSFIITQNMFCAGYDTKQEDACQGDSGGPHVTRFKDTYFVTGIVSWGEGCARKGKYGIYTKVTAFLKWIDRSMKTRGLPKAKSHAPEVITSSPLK

pKd [1]: 6.00
pKd [2]: 6.00
pKd (FX zymogen): 6.00
pKd [3]: 6.00
Substance: emicizumab (ACE910) sequence identical bispecific antibody (emicizumab biosimilar)
